# Biological target: T1, HLA-A*02:01 on TAP deficient T2 cells (human)
# T1 construct: whole, on cells; Endogenous HLA class I of T2 cells, detected with the pan HLA antibody W6/32
# Experiment: T2 cell HLA stabilization assay, flow cytometry with pan HLA antibody W6/32
# Procedure: HLA-A*02:01 TAP deficient T2 cells (2×10⁵ in 200 μL) were incubated with peptides (25 μg per ml in 10% DMSO in PBS) in AIM-V plus 1% human serum at 25° C. overnight to facilitate peptide binding by reducing HLA turnover. The following day the cells were returned to 37° C. for 5 hours then stained with a pan HLA antibody (FITC-conjugated HLA, B, C; clone W6/32). HLA class I expression was measured by flow cytometry, and the percent increase in mean fluorescence intensity over cells incubated with 10% DMSO alone was calculated.
row,binding result,Binder
1,binds,SMLEKTALL (Peptide added to T2 cells at 25 ug per ml; also called one of the SYY peptides; candidate therapeutic peptide) [SMLEKTALL peptide (Sfxn5/SFXN5 alternative splicing variant)]
2,binds,YMYNKVAVL (Peptide added to T2 cells at 25 ug per ml; also called one of the SYY peptides; candidate therapeutic peptide) [YMYNKVAVL peptide (Atl2/ATL2 alternative splicing variant)]

# From patent US20250352576A1 (University of California, published 2025)
